B1: target 3 insA 3' of 2 (mixed)
RNA 1: CACCCGUGCAAAAUUGCAGGGGUCUAAAACGACCUGAAUAUUUCAGAUCAAA
RNA 2: GGGAAUGGAUCCACAUCUACGAAUUCGUUUUUGAUCUGAAAUAUUCAGGUACUGCAGAUCGGAAGAGCACACGU
B2: target 3 U8C,A9G (mixed)
RNA 1: B1 RNA 1
RNA 2: GGGAAUGGAUCCACAUCUACGAAUUCGUUUUUGAUCUGAAAUGCUCAGGUCUGCAGAUCGGAAGAGCACACGU
B3: target 3 del6,del9 (mixed)
RNA 1: B1 RNA 1
RNA 2: GGGAAUGGAUCCACAUCUACGAAUUCGUUUUUGAUCUGAAAUUUAGGUCUGCAGAUCGGAAGAGCACACGU
B4: target 3 insC 3' of 18,insA 3' of 17 (mixed)
RNA 1: B1 RNA 1
RNA 2: GGGAAUGGAUCCACAUCUACGAAUUCGUUUUUGACUACUGAAAUAUUCAGGUCUGCAGAUCGGAAGAGCACACGU
B5: target 3 insA 3' of 21,insA 3' of 6 (mixed)
RNA 1: B1 RNA 1
RNA 2: GGGAAUGGAUCCACAUCUACGAAUUCGUUUUAUGAUCUGAAAUAUUCAAGGUCUGCAGAUCGGAAGAGCACACGU
B6: target 3 insA 3' of 3,insG 3' of 2 (mixed)
RNA 1: B1 RNA 1
RNA 2: GGGAAUGGAUCCACAUCUACGAAUUCGUUUUUGAUCUGAAAUAUUCAGGAUGCUGCAGAUCGGAAGAGCACACGU
B7: target 3 insA 3' of 8,insC 3' of 8 (mixed)
RNA 1: B1 RNA 1
RNA 2: B6 RNA 2 with U45A, A47U, G48C, G49A, A50G, U51G, G52U
B8: target 3 U2C,A5U (mixed)
RNA 1: B1 RNA 1
RNA 2: B2 RNA 2 with G43A, C44U, A47U, U50C
B9: target 3 G4A,U8G (mixed)
RNA 1: B1 RNA 1
RNA 2: B2 RNA 2 with G43A, C44G, G48A
B10: target 3 insA 3' of 6,insU 3' of 5 (mixed)
RNA 1: B1 RNA 1
RNA 2: B6 RNA 2 with G48A, G49U, A50G, U51G, G52U
B11: target 3 A12G,U22G (mixed)
RNA 1: B1 RNA 1
RNA 2: B2 RNA 2 with U30G, A40G, G43A, C44U
B12: target 3 G4A,U8C (mixed)
RNA 1: B1 RNA 1
RNA 2: B2 RNA 2 with G43A, G48A
B13: target 3 insA 3' of 2,insA 3' of 1 (mixed)
RNA 1: B1 RNA 1
RNA 2: B6 RNA 2 with A50U, U51A, G52C, C53A
B14: target 3 A12U,A18G (mixed)
RNA 1: B1 RNA 1
RNA 2: B2 RNA 2 with A34G, A40U, G43A, C44U
B15: target 3 U7A,A13G (mixed)
RNA 1: B1 RNA 1
RNA 2: B2 RNA 2 with A39G, G43A, C44U, U45A
B16: target 3 U2A,U8C (mixed)
RNA 1: B1 RNA 1
RNA 2: B2 RNA 2 with G43A, U50A
B17: target 3 A5U,C6U (mixed)
RNA 1: B1 RNA 1
RNA 2: B2 RNA 2 with G43A, C44U, C46U, A47U
B18: target 3 insU 3' of 13,insA 3' of 2 (mixed)
RNA 1: B1 RNA 1
RNA 2: B6 RNA 2 with A40U, U42A, A43U, U44A, C46U, A47C, G48A, A50G, G52A
B19: target 3 insC 3' of 22,insC 3' of 3 (mixed)
RNA 1: B1 RNA 1
RNA 2: B5 RNA 2 with U31C, A32U, A49G, G51C
B20: target 3 insA 3' of 22,insA 3' of 7 (mixed)
RNA 1: B1 RNA 1
RNA 2: B5 RNA 2 with U31A, A32U, C47A, A48C
B21: target 3 insU 3' of 5,insA 3' of 3 (mixed)
RNA 1: B1 RNA 1
RNA 2: B6 RNA 2 with G48U, A50G, U51A, G52U
B22: target 3 insC 3' of 5,insG 3' of 2 (mixed)
RNA 1: B1 RNA 1
RNA 2: B6 RNA 2 with G48C, A50G
B23: target 3 A5G,A18G (mixed)
RNA 1: B1 RNA 1
RNA 2: B2 RNA 2 with A34G, G43A, C44U, A47G
B24: target 3 insG 3' of 8,insC 3' of 3 (mixed)
RNA 1: B1 RNA 1
RNA 2: B6 RNA 2 with U45G, C46U, A47C, G48A, A50G, U51C, G52U
B25: target 3 G3U,A5G (mixed)
RNA 1: B1 RNA 1
RNA 2: B2 RNA 2 with G43A, C44U, A47G, G49U
B26: target 3 insG 3' of 8,insC 3' of 8 (mixed)
RNA 1: B1 RNA 1
RNA 2: B6 RNA 2 with U45G, A47U, G48C, G49A, A50G, U51G, G52U
B27: target 3 insC 3' of 3,insG 3' of 2 (mixed)
RNA 1: B1 RNA 1
RNA 2: B6 RNA 2 with A50C
B28: target 1 A1U,C6G (mixed)
RNA 1: CACCCGUGCAAAAAUGCAGGGGUCUAAAACUGAGCGGAUAACCUCUCUAUGG
RNA 2: GGGAAUGGAUCCACAUCUACGAAUUCGUACCAUAGAGAGGUUAUCGGCUCUCCGAGAUCGGAAGAGCACACGU
B29: target 1 A1U,C4U (mixed)
RNA 1: B28 RNA 1
RNA 2: B28 RNA 2 with G46C, C48U
B30: target 1 U3G,C6U (mixed)
RNA 1: B28 RNA 1
RNA 2: B28 RNA 2 with G46U, U49G, U51A
B31: target 1 A9C,U11G (mixed)
RNA 1: B28 RNA 1
RNA 2: B28 RNA 2 with U41G, A43C, G46C, U51A

Numbering of substitutions follows the chain as printed. In names and notes the source's numbering stands.

For this series, the target named is T1, EsCas13d, nuclease-dead (Eubacterium siraeum, UniProt B0MS50, R295A;H300A;R849A;H854A).
T1 sequence: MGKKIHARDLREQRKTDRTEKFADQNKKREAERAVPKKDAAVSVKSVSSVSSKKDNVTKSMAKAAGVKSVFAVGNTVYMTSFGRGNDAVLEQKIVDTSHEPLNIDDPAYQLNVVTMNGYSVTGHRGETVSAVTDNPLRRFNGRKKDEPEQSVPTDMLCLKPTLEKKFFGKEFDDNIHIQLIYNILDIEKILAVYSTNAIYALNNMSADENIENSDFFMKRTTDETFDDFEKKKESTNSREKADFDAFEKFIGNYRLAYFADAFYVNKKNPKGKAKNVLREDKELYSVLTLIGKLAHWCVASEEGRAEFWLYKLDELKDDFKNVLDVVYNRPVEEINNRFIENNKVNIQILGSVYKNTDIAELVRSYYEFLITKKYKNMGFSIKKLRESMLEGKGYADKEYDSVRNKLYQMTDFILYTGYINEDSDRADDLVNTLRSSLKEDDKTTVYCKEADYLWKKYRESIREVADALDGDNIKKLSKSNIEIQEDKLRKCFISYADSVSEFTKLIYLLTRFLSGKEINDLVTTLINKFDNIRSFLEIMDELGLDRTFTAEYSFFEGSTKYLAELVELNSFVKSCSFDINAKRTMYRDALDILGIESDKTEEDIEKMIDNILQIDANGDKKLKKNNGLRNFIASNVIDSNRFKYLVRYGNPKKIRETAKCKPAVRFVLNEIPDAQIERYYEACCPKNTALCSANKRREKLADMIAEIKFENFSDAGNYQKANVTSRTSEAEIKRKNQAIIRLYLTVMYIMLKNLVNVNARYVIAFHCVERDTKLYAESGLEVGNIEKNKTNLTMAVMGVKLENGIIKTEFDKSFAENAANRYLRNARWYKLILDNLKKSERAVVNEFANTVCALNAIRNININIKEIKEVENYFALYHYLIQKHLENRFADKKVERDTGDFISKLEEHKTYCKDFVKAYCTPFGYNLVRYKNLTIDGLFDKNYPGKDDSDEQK
The series is described as follows: crRNA (strand 1, pre-loaded); Mg2+; 40 mM Tris-HCl pH 7.5, 150 mM NaCl, 6 mM MgCl2, 1 mM DTT, 0.1% Tween-20, 0.2 mg/ml BSA; 25 C; 10 min per concentration, then washed. Conditions: tags: His6-TwinStrep-SUMO cleaved; N-terminal SNAP kept (SNAP-Surface 488); label: 3' end held by stalled T7 RNA polymerase.
Molecule B1 displayed a Kd of 30.2 ± 2.55 nM.
In turn, B2 registered a Kd of 77 ± 15.5 nM.
To B3 belongs 120 ± 24 nM; to B4, 34.5 ± 11 nM; to B5, 38.4 ± 4.75 nM.
In turn, B6 displayed a Kd of 24.6 ± 3.4 nM.
For the molecule B7, the Kd was 63 ± 10 nM.
Consider B8, for which the Kd was determined as 36.4 ± 3.4 nM.
In turn, B9 showed a Kd of 77.5 ± 21 nM.
B10 displayed a Kd of 4 ± 0.27 nM.
Then B11, with 86 ± 20 nM; and B12, with 52.8 ± 5.6 nM.
To B13 belongs 34.3 ± 4.25 nM; to B14, 97 ± 34 nM; to B15, 100 ± 50 nM.
On to B16, for which the Kd was 44.5 ± 6 nM.
For the molecule B17, binding was characterised by a dissociation constant (Kd) of 48 ± 6 nM.
For B18, the Kd turned out to be 74 ± 17.5 nM.
As to B19, the Kd was found to be 33 ± 4.5 nM.
B20 returned a Kd of 65 ± 21.5 nM. Compared with the last molecule, the Kd is about 2-fold higher.
On to B21, for which the Kd came to 6.39 ± 0.52 nM.
Then B22, with 29 ± 2.8 nM; and B23, with 30.6 ± 4.5 nM.
For B24, binding was characterised by a dissociation constant (Kd) of 38.8 ± 5.05 nM.
For B25, the affinity, expressed as Kd, was 25.4 ± 2.4 nM.
The molecule B26 came in with a Kd of 58 ± 8.5 nM.
B27 displayed a Kd of 10.6 ± 1.25 nM. Compared with the last molecule, the Kd is about 5.5-fold lower.
As to B28, the Kd turned out to be 12.1 ± 0.9 nM.
Then B29, with 13 ± 1.7 nM.
As for B30, the Kd was determined as 4.79 ± 0.35 nM.
On to B31, for which binding was characterised by a dissociation constant (Kd) of 44 ± 6 nM.
